Reference: patent publication US20120195893A1 (UNITED STATES OF AMERICA AS REPRESENTED BY THE SECRETARY OF …, published 2012)

Target: T1, mouse DEC205 receptor (mouse, UniProt Q60767 28-1723)
T1 construct: whole, on cells; also called DEC25 receptor; CD205
Assay: flow cytometry on DEC205-transfected A204 cells

B1: PyTh1 chimeric molecule (other)
heavy: EVKLLESGGGLVQPGGSLRLSCAASGFTFNDFYMNWIRQPPGQAPEWLGVIRNKGNGYTTEVNTSVKGRFTISRDNTQNILYLQMNSLRAEDTAIYYCARGGPYYYSGDDAPYWGQGVMVTVSSAKTTAPSVYPLAPVCGDTTGSSVTLGCLVKGYFPEPVTLTWNSGSLSSGVHTFPAVLQSDLYTLSSSVTVTSSTWPSQSITCNVAHPASSTKVDKKIEPRGPTIKPCPPCKCPAPNLLGGPSVFIFPPKIKDVLMISLSPIVTCVVVDVSEDDPDVQISWFVNNVEVHTAQTQTHREDYNSTLRVVSALPIQHQDWMSGKEFKCKVNNKDLPAPIERTISKPKGSVRAPQVYVLPPPEEEMTKKQVTLTCMVTDFMPEDIYVEWTNNGKTELNYKNTEPVLDSDGSYFMYSKLRVEKKNWVERNSYSCSVVHEGLHNHHTTKSFSQTPGKGGGGSGGGGSGGGGSVDEQLSKSVKDKVLLPCRYNSPHEDECEDRIYWQKHDKVVLSVIAGKLKVWPEYKNRTLYDNTTYSLIILGLVLSDRGTYSCVVQKKERGTYEVKHLALVKLSIKADFSTPNITESGNPSADTKRITCFASGGFPKPRFSWLENGRELPGINTTISQDPESELYTISSQLDFNTTRNHTIKCLIKYGDAHVSEDFTWEKPPEDPPDSK
light: DIQMTQSPSFLSTSLGNSITITCHASQNIKGWLAWYQQKSGNAPQLLIYKASSLQSGVPSRFSGSGSGTDYIFTISNLQPEDIATYYCQHYQSFPWTFGGGTKLELKRDAAPTVSIFPPSSEQLTSGGASVVCFLNNFYPKDINVKWKIDGSERQNGVLNSWTDQDSKDSTYSMSSTLTLTKDEYERHNSYTCEATHKTSTSPIVKSFNRNECGGGGSGGGGMGGGGSYNRNIVNRLLGDALNGKPEEK
notes: Mouse IgG2a scaffold with the variable domains of rat anti-mouse DEC205, made in SP20 myeloma cells; also called PhyTh1; PyTh1 vaccine
B1: binds.
